Consider 1 protein from PMC3050645.

Substrate in this series: [O-][Cl+]O
As to the kind of experiment: Clark-type O2 electrode, initial rates. The series is classed as biochemical, Dechloromonas aromatica (nom. nud.). To be noted: pH 5.2, 4 °C, 100 mM citrate-phosphate.

B1: Chlorite dismutase (Cld) (Dechloromonas aromatica RCB) (protein)
chain: MQPMQSMKIERGTILTQPGVFGVFTMFKLRPDWNKVPVAERKGAAEEVKKLIEKHKDNVLVDLYLTRGLETNSDFFFRINAYDLAKAQTFMREFRSTTVGKNADVFETLVGVTKPLNYISKDKSPGLNAGLSSATYSGPAPRYVIVIPVKKNAEWWNMSPEERLKEMEVHTTPTLAYLVNVKRKLYHSTGLDDTDFITYFETDDLTAFNNLMLSLAQVKENKFHVRWGSPTTLGTIHSPEDVIKALAD
As for B1, the Km (as a rule, the substrate concentration at which the rate is half of its maximum) worked out at 620 ± 70 µM; the kcat (usually the number of substrate molecules converted per active site and unit of time at saturation) was found to be 20000 ± 6000 s⁻¹; the kcat/Km (in general, the turnover number divided by the Michaelis constant) was 3.2e+07 ± 4e+06 M⁻¹ s⁻¹.
